Measured values: publication PMC7145699, “Structural insights into target DNA recognition by R2R3-MYB transcription factors”

Key:
WER 12-130 (WER-R2R3) [1] = target: T1, WER 12-130 (WER-R2R3) (Arabidopsis, UniProt Q9SEI0 12-130); experiment: ITC; ITC: 150 mM NaCl, 20 mM HEPES pH 7.5, 25 C, 400 uM protein into 20 uM DNA; EMSA: 150 mM NaCl, 20 mM Tris-HCl pH 8.0, on ice 1 h, 0.1 uM DNA, 6% native PAGE 0.5x TBE; conditions: protein: recombinant; tags: 6xHis-SUMO removed by Ulp1; blunt
T1 sequence: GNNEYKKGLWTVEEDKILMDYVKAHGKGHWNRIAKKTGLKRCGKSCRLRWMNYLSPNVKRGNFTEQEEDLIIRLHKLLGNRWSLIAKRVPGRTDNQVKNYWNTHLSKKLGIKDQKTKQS

WER 12-130 (WER-R2R3) [2] = target: T1, WER 12-130 (WER-R2R3); experiment: as above; conditions: protein: recombinant; tags: 6xHis-SUMO removed by Ulp1; blunt; remark: listed apart in the source
WER 12-130 (WER-R2R3) [3] = target: T1, WER 12-130 (WER-R2R3); experiment: crystal structure (2.15 A); ITC: 150 mM NaCl, 20 mM HEPES pH 7.5, 25 C, 400 uM protein into 20 uM DNA; EMSA: 150 mM NaCl, 20 mM Tris-HCl pH 8.0, on ice 1 h, 0.1 uM DNA, 6% native PAGE 0.5x TBE; conditions: protein: recombinant; tags: 6xHis-SUMO removed by Ulp1; 5' overhang 1 nt at both ends
WER 12-130 (WER-R2R3) [4] = target: T1, WER 12-130 (WER-R2R3); experiment: ITC; ITC: 150 mM NaCl, 20 mM HEPES pH 7.5, 25 C, 400 uM protein into 20 uM DNA; EMSA: 150 mM NaCl, 20 mM Tris-HCl pH 8.0, on ice 1 h, 0.1 uM DNA, 6% native PAGE 0.5x TBE; conditions: protein: recombinant; tags: 6xHis-SUMO removed by Ulp1; blunt; remark: listed apart in the source

B1: A12:T11* (dsDNA)
DNA 1: AAATTCTCCAAACGCATTTTC
DNA 2: GAAAATGCGTTTGGAGAATTT
**Q.** Which Kd (WER 12-130 (WER-R2R3) [1]) does the source give for B1 here?
**A.** 2590 nM

B2: 6mA11 DNA (A6mAC) (dsDNA)
DNA 1: AAATTCTCCAACCGCATTTTC
DNA 2: GAAAATGCGGTTGGAGAATTT
modifications: 6mA at A11 of strand 1
**Q.** With B2 as the binder, how does the binding signal (WER 12-130 (WER-R2R3) [2]) read?
**A.** 5 fold decrease in affinity vs N1

B3: crystal DNA (dsDNA)
DNA 1: AAATTCTCCAACCGCATTTTC
DNA 2: CGAAAATGCGGTTGGAGAATT
**Q.** Does B3 bind (WER 12-130 (WER-R2R3) [3])?
**A.** binds

B4: 5mC12 DNA (AA5mC) (dsDNA)
DNA 1: AAATTCTCCAACCGCATTTTC
DNA 2: GAAAATGCGGTTGGAGAATTT
modifications: 5mC at C12 of strand 1
**Q.** With B4 as the binder, how does the Kd (WER 12-130 (WER-R2R3) [1]) read?
**A.** 2340 nM

B5: A14:T9* (dsDNA)
DNA 1: AAATTCTCCAACCACATTTTC
DNA 2: GAAAATGTGGTTGGAGAATTT
**Q.** Does B5 bind (WER 12-130 (WER-R2R3) [1])?
**A.** binds

B6: 6mA10 DNA (6mAAC) (dsDNA)
DNA 1: AAATTCTCCAACCGCATTTTC
DNA 2: GAAAATGCGGTTGGAGAATTT
modifications: 6mA at A10 of strand 1
**Q.** Which binding signal (WER 12-130 (WER-R2R3) [2]) does the source give for B6 here?
**A.** 12 fold decrease in affinity vs N1

B7: C10:G13* (dsDNA)
DNA 1: AAATTCTCCCACCGCATTTTC
DNA 2: GAAAATGCGGTGGGAGAATTT
**Q.** How did the Kd (WER 12-130 (WER-R2R3) [1]) turn out when B7 was run?
**A.** 2000 nM

B8: T14:A9* (dsDNA)
DNA 1: AAATTCTCCAACCTCATTTTC
DNA 2: GAAAATGAGGTTGGAGAATTT
**Q.** Does B8 bind (WER 12-130 (WER-R2R3) [1])?
**A.** binds

B9: C14:G9* (dsDNA)
DNA 1: AAATTCTCCAACCCCATTTTC
DNA 2: GAAAATGGGGTTGGAGAATTT
**Q.** For B9, which binding signal (WER 12-130 (WER-R2R3) [4]) is on record?
**A.** 40 fold decrease in affinity vs N1

B10: 6mA10,6mA11 DNA (6mA6mAC) (dsDNA)
DNA 1: AAATTCTCCAACCGCATTTTC
DNA 2: GAAAATGCGGTTGGAGAATTT
modifications: 6mA at A10 and A11 of strand 1
**Q.** For B10, which binding signal (WER 12-130 (WER-R2R3) [2]) is on record?
**A.** > 20 fold decrease in affinity vs N1

B11: GL2 promoter WER target DNA (dsDNA)
DNA 1: AAATTCTCCAACCGCATTTTC
DNA 2: GAAAATGCGGTTGGAGAATTT
**Q.** How did the Kd (WER 12-130 (WER-R2R3) [1]) turn out when B11 was run?
**A.** ~51 nM
